Here are results for one molecule from patent US20250313625A1 (ELPISCIENCE SUZHOU BIOPHARMA, published 2025).

As a reminder, the IC50 is the midpoint of a concentration-inhibition curve. The term Kd denotes the constant that tells how readily two partners part at equilibrium. The low end stands for a tighter complex, the high end for a looser complex. What is called koff is the first-order rate constant of dissociation. Read a high koff as fast dissociation. As a reminder, the kon is the rate constant with which the complex forms. For orientation: EC50 means the midpoint of the concentration-response curve.

Where two headings read alike, the source gives them in different places.

The target of assay [1] is T1, LAG3 D1 domain extra loop peptide (biotin labelled (site not stated)).
T1 peptide: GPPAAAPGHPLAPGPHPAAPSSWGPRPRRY
The assay is described as follows: ELISA format I: biotin labelled LAG3 D1 domain extra loop peptide on plate coated antibody; axis printed as Ab Conc. (nM). The method, then: In ELISA binding assay of format I (FIG. 9A), biotin labelled LAG3 D1 domain extra loop peptide was incubated with ELISA microplate coated anti-LAG3 antibodies. After washing, HRP labeled anti-SA 2nd antibody (Sigma) was added and incubated at 37° C. for 1 hour. Then, 100 μl/well of TMB solution (Biotechnology) was added. After incubation for 15 minutes at room temperature, the reaction was stopped by the addition of 50 μl of 1N HCl. OD 450 nm was read. In ELISA binding assay of format II (FIG. 9B), biotin labelled LAG3 D1 domain extra loop peptide and anti-LAG3 antibodies were co-incubated in ELISA microplate coated with SA. After washing, HRP labeled anti-human Fc 2nd antibody (Sigma) was added and incubated at 37° C. for 1 hour. Then, 100 μl/well of TMB solution (Biotechnology) was added. After incubation for 15 minutes at room temperature, the reaction was stopped by the addition of 50 μl of 1N HCl. OD 450 nm was read.
In general terms: An ELISA detects its analyte on a solid surface through an enzyme-linked reagent.

For assay [2], the target named is T2, mFc tagged human LAG3 ECD recombinant protein (human, UniProt P18627 23-450).
T2 construct: extracellular domain; purchased from Biointron; not shown: mouse IgG Fc (mFc) tag
T2 sequence (looked up): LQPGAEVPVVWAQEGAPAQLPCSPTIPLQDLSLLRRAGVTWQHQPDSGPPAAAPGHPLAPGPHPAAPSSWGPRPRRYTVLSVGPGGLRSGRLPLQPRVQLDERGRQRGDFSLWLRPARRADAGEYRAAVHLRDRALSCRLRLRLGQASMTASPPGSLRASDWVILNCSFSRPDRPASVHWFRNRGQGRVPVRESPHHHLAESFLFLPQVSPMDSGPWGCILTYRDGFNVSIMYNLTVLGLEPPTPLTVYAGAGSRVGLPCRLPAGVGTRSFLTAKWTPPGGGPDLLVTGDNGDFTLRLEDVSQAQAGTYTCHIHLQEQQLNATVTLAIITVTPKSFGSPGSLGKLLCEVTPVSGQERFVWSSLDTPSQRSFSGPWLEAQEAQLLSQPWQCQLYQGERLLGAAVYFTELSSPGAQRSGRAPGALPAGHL
The assay is described as follows: competitive FACS: mFc-LAG3 ECD binding to Raji cells (MHC II). The method, then:
(§1) Activity of the purified chimeric antibodies to block LAG3 and MHC II interaction was determined by competitive FACS assay. […] After washing, dye labeled anti-mouse Fc 2nd antibody (Sigma) was added and incubated at 37° C. for 1 hour. Fluorescence intensity was detected.

Assay [3] addresses T3, human LAG3 (form used in Octet, Biacore and HDX-MS not given) (human, UniProt P18627 23-450, limits assumed).
T3 sequence (looked up): T2 sequence (looked up)
The assay is described as follows: SPR (Biacore), 1:1 fit. The method, then:
The association and dissociation curves were fit with 1:1 binding model, and the Ka/Kd/KD values for each antibody were calculated.

In assay [4] the target is T2, mFc tagged human LAG3 ECD recombinant …. The assay is described as follows: competitive FACS: mFc-LAG3 ECD binding to Raji cells (MHC II). The method, then:
as §1
This is another data set of the same source.

The target of assay [5] is T4, human LAG3, full length, stably expressed on cells (human, UniProt P18627 23-525).
T4 construct: whole, on cells; also called CHOK1-human LAG3
T4 sequence (looked up): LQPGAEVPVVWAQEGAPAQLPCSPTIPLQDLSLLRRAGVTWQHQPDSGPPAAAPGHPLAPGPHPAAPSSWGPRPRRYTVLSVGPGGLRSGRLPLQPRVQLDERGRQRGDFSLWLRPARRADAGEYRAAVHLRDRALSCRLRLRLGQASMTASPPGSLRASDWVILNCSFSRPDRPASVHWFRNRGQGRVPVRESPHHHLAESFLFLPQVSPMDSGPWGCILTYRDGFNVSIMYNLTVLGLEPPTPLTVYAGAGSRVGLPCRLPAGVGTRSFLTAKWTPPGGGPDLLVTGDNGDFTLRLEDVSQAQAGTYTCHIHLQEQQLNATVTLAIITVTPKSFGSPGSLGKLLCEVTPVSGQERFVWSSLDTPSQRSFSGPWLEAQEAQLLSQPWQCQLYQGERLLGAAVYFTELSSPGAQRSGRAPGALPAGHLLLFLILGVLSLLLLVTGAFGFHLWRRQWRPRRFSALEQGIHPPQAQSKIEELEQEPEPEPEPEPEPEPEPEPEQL
The assay is described as follows: competitive FACS format III: His-FGL1 binding to 293F-human LAG3 cells. The procedure:
After washing, HRP labeled anti-His 2nd antibody (Sigma) was added and incubated at 37° C. for 1 hour. Then, 100 μl/well of TMB solution (Biotechnology) was added. After incubation for 15 minutes at room temperature, the reaction was stopped by the addition of 50 μl of 1N HCl. OD 450 nm was read. […] After washing, HRP labeled anti-SA 2nd antibody (Sigma) was added and incubated at 37° C. for 1 hour. Then, 100 μl/well of TMB solution (Biotechnology) was added. After incubation for 15 minutes at room temperature, the reaction was stopped by the addition of 50 μl of 1N HCl. OD 450 nm was read. […] The competition assay of format III is a competitive FACS assay. […] After washing, dye labeled anti-His 2nd antibody (Sigma) was added and incubated at 37° C. for 1 hour. Fluorescence intensity was detected.

The target in assay [6] is T5, hFc tagged human LAG3 ECD recombinant protein (human, UniProt P18627 23-450).
T5 construct: range 23-450; also called biotin labelled hFc tagged human LAG3 ECD; not shown: human IgG Fc tag
T5 sequence (looked up): T2 sequence (looked up)
The assay is described as follows: competitive ELISA format II: biotin hFc-LAG3 ECD binding to coated His-FGL1.

The target in assay [7] is T4, human LAG3, full length, stably …. The assay is described as follows: FACS on 293F cells stably expressing human LAG3. The procedure: (§2) Briefly the antibodies were incubated with 2×10⁵ target cells at 4° C. for 1 hour. After washing, fluorescence labeled anti-mouse IgG 2nd antibody (Life Technologies) was added and incubated at 4° C. for 1 hour. Geometric median fluorescence intensity (MFI) was detected and EC₅₀ was calculated using GraphPad Prism9.0.
(§3) MFI was detected and EC₅₀ was calculated using GraphPad Prism9.0.

Assay [8] has the same target. The experiment in a line: FACS on 293F cells stably expressing human LAG3. The procedure:
as §2, §3
This is another data set of the same source.

B1: 023c (antibody, human IgG4, V domains shown)
VH: QIQLVQSGPVLKKPGETVKISCKASGYTFTESPMNWVKQAPGRGFKWMGMIYTDTGEPTYAEEFKGRFAFSLETSASTAYLQINNLKSEDTATYFCVSDYGSILYWYFDVWGTGTTVTVSS
VL: DIVMTQSHKFMSTSVGDRVSITCKASQDVSTAVAWYQQTPGQSPKLLIYSASYRYTGVPDRFTGSGSGTDFTFTISSVQAEDLAVYYCQQHYNSPPTFGAGTKLELK
notes: human IgG4 S228P / kappa chimeric antibody; also called chimeric antibody 023; ES005-023c; not shown: human kappa light chain constant region (pcDNA3.4-hIgGk vector)
For the molecule B1, in assay [1], the binding result is “no binding (tested: about 300 nM)”. Besides, in assay [2], the IC50 is 6.2 nM and the “TOP blocking (%)” value was 99.2%. In assay [3], this molecule showed a Kd of 0.0775 nM, a koff of 0.000441 s⁻¹ and an on-rate (kon) of 5.68e+06 M⁻¹ s⁻¹. For the same molecule, in assay [4], the IC50 was 3.7 nM and the “TOP blocking (%)” value was 94.6%. Besides, in assay [5], the “Blocking ratio at 200 nM (%)” value was found to be 29%. In assay [6], the IC50 was found to be 1.5 nM and the “TOP blocking (%)” value was 82.8%. In assay [7], it took 1.3 nM to reach a half-maximal effect (EC50) and the “TOP MFI” value is 387. Further, in assay [8], the EC50 was found to be 0.26 nM and the “TOP MFI” value turned out to be 3430.
